{"source": "paper PMC4837482", "about": "“The complex binding mode of the peptide hormone H2 relaxin to its receptor RXFP1” (Nature Communications, 2016)", "key": {"RXFP1 [1]": {"biological_target": "T1, RXFP1 (Homo sapiens, UniProt Q9HBX9)", "T1 construct": "transiently transfected human embryonic kidney (HEK) 293T cells expressing full-length RXFP1 and mutants; expressed in transfected cells; host or cells: HEK293T", "T1 sequence (Q9HBX9 1-757)": "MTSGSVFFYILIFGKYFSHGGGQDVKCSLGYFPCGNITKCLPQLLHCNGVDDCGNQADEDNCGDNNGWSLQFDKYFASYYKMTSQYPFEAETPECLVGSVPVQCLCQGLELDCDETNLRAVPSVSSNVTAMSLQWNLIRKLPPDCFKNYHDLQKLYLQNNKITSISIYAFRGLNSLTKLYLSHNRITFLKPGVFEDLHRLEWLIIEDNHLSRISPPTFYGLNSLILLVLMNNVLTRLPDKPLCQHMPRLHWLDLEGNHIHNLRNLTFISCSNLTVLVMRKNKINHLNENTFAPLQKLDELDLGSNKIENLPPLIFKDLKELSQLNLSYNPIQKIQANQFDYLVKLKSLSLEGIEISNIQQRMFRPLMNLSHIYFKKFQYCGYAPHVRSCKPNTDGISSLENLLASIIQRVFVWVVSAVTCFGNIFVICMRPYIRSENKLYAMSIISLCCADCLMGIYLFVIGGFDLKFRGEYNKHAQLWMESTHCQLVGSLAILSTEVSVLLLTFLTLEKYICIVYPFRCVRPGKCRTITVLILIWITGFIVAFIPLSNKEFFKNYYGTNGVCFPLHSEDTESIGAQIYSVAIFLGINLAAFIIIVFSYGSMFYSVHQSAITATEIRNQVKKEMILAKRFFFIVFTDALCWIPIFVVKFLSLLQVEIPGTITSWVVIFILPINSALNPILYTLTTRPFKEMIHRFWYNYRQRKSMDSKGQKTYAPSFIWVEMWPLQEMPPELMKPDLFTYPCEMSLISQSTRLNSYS", "assay": "Eu-H2 relaxin saturation binding assay, transfected HEK293T cells", "settings": "Mn2+ replacing Eu3+ in the DTPA cage; method not described"}, "F50A^Ins-RXFP1(1–72)": {"biological_target": "T2, F50A^Ins-RXFP1(1–72) (Homo sapiens, UniProt Q9HBX9, INS72A)", "T2 construct": "GB1 (N, cleaved yes); made in house; host or cells: E. coli BL21 (DE3) trxB", "T2 sequence (Q9HBX9 with tags, fused parts or gaps INS72A)": "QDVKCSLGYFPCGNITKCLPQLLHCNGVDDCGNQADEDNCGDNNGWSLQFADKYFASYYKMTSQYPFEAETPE", "assay": "Paramagnetic line-broadening (1H-15N HSQC) titration with Mn2+-DTPA-(A)-H2", "assay_type": "binding", "settings": "50 μM F50A^Ins-RXFP1(1–72), 0.2 μM Mn2+-DTPA-(A)-H2; versus wild type", "protocol": "(§1) All RXFP1(1–72) protein samples for nuclear magnetic resonance (NMR) experiments were prepared from lyophilized protein in 50 mM imidazole, with 10 mM CaCl2 at pH 6.8. Recombinant human gene-2 H2 relaxin peptide was kindly provided by Corthera. EL1^(475–486)/EL2-GB1 samples were prepared as described above. Titrant and titrand were dialyzed in the same buffer in the same vessel. All NMR experiments were routinely collected at 25 °C on a 700-MHz Bruker Avance HDIII spectrometer equipped with triple resonance cryoprobe. […] Backbone assignments were made from 3D HNCACB, HNCOCACB, HNCO and HNCACO experiments. Spectra were processed using NMRPipe (ref. [43]) and typically Fourier-transformed after applying Lorentz-to-Gauss window functions in the direct dimension and cosine bells in the indirect dimensions. NMR data were analysed using SPARKY (Goddard, T.D. and Kneller, D.G., University of California, San Francisco). Assignments of the mutant RXFP1(1–72) proteins were determined from the assignments of wild-type RXFP1(1–72).\n(§2) ^15N{^1H}-NOE experiments[45] (2,048 × 256 data points) were acquired with a saturation pulse of 4 s and an additional relaxation delay of 5 s. Sample conditions were 150 μM RXFP(1–72) or mutants either without or with 450 μM H2 relaxin. Binding to Mn^2+-DTPA-(A)-H2 to RXFP1(1–72) and mutants was monitored by recording 2D ^1H-^15N HSQC (2,048 × 256 data points) for 0.2 μM Mn^2+-DTPA-(A)-H2 against 50 μM RXFP1(1–72). H2 relaxin and its truncates such as A-chain (9–24), H2/I5 chimera and Phe23Ala A-chain mutant H2 were titrated into a complex of 50 μM RXFP1(1–72) and 0.2 μM Mn^2+-DTPA-(A)-H2 with increasing concentrations ranging from 5 to 50 μM."}, "F50A RXFP1(1–72)": {"biological_target": "T3, F50A RXFP1(1–72) (Homo sapiens, UniProt Q9HBX9, F72A)", "T3 construct": "GB1 (N, cleaved yes); made in house; host or cells: E. coli BL21 (DE3) trxB", "T3 sequence (Q9HBX9 23-94 F72A)": "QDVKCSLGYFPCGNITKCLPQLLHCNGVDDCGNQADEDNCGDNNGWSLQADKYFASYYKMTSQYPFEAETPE", "assay": "Paramagnetic line-broadening (1H-15N HSQC) titration with Mn2+-DTPA-(A)-H2", "assay_type": "binding", "settings": "50 μM F50A RXFP1(1–72), 0.2 μM Mn2+-DTPA-(A)-H2; versus wild type", "protocol": "as §1, §2"}, "G41A/D42A-RXFP1(1–72)": {"biological_target": "T4, G41A/D42A-RXFP1(1–72) (Homo sapiens, UniProt Q9HBX9, D64A/G63A)", "T4 construct": "GB1 (N, cleaved yes); made in house; host or cells: E. coli BL21 (DE3) trxB", "T4 sequence (Q9HBX9 23-94 G63A/D64A)": "T3 sequence (Q9HBX9 23-94 F72A) with G41A, D42A, A50F", "assay": "Paramagnetic line-broadening (1H-15N HSQC) titration with Mn2+-DTPA-(A)-H2", "assay_type": "binding", "settings": "50 μM G41A/D42A-RXFP1(1–72), 0.2 μM Mn2+-DTPA-(A)-H2; versus wild type", "protocol": "as §1, §2"}, "F54A-RXFP1(1–72)": {"biological_target": "T5, F54A-RXFP1(1–72) (Homo sapiens, UniProt Q9HBX9, F76A)", "T5 construct": "GB1 (N, cleaved yes); made in house; host or cells: E. coli BL21 (DE3) trxB", "T5 sequence (Q9HBX9 23-94 F76A)": "T3 sequence (Q9HBX9 23-94 F72A) with A50F, F54A", "assay": "Paramagnetic line-broadening (1H-15N HSQC) titration with Mn2+-DTPA-(A)-H2", "assay_type": "binding", "settings": "50 μM F54A-RXFP1(1–72), 0.2 μM Mn2+-DTPA-(A)-H2; versus wild type", "protocol": "as §1, §2"}, "G45A/W46A-RXFP1(1–72)": {"biological_target": "T6, G45A/W46A-RXFP1(1–72) (Homo sapiens, UniProt Q9HBX9, G67A/W68A)", "T6 construct": "GB1 (N, cleaved yes); made in house; host or cells: E. coli BL21 (DE3) trxB", "T6 sequence (Q9HBX9 23-94 G67A/W68A)": "T3 sequence (Q9HBX9 23-94 F72A) with G45A, W46A, A50F", "assay": "Paramagnetic line-broadening (1H-15N HSQC) titration with Mn2+-DTPA-(A)-H2", "assay_type": "binding", "settings": "50 μM G45A/W46A-RXFP1(1–72), 0.2 μM Mn2+-DTPA-(A)-H2; versus wild type", "protocol": "as §1, §2"}, "F54A/Y58A RXFP1(1–72)": {"biological_target": "T7, F54A/Y58A RXFP1(1–72) (Homo sapiens, UniProt Q9HBX9, F76A/Y80A)", "T7 construct": "GB1 (N, cleaved yes); made in house; host or cells: E. coli BL21 (DE3) trxB", "T7 sequence (Q9HBX9 23-94 F76A/Y80A)": "T3 sequence (Q9HBX9 23-94 F72A) with A50F, F54A, Y58A", "assay": "Paramagnetic line-broadening (1H-15N HSQC) titration with Mn2+-DTPA-(A)-H2", "assay_type": "binding", "settings": "50 μM F54A/Y58A RXFP1(1–72), 0.2 μM Mn2+-DTPA-(A)-H2; versus wild type", "protocol": "as §1, §2"}, "RXFP1 [2]": {"biological_target": "T1, RXFP1", "assay": "cAMP activity assay (pCRE β-galactosidase reporter), transfected HEK293T cells", "assay_type": "cell-based", "settings": "Mn2+ replacing Eu3+ in the DTPA cage; method not described", "protocol": "Media was aspirated and plates stored frozen at −80 °C overnight. […] H2 relaxin dilutions were prepared in minimal media containing 1% DMSO. Positive and negative control stimulations were achieved by incubation with 5 μM Forskolin and minimal media/1% DMSO, respectively. Plates were developed by 10 min of incubation in 25 μl of lysis buffer 1 (100 mM Na2HPO4, pH 8.0, 0.2 mM MgSO4 0.01 mM MnCl2); a further 10 min of incubation in 100 μl of buffer 2 (100 mM Na2HPO4, pH 8.0, 2 mM MgSO4, 0.1 mM MnCl2, 0.5% Triton X-100, 40 mM β-mercaptoethanol); then to each well 25 μl of the β-galactosidase substrate, chlorophenol red-β-D-galactopyranoside (Roche) was added. All incubation steps were conducted with orbital shaking. Color-change was monitored and readings were taken on a Benchmark Plus Microplate Reader (Bio-Rad) at 570 nm. A minimum of three separate experiments were performed, each of them in triplicate, and data were pooled and presented as percentages of the maximum response induced by 5 μM Forskolin±s.e.m."}}, "note": "Where a chain is given by its changes, count along the chain named."}
{"substance": "Mn^2+-DTPA-(A)-H2: H2 relaxin with a DTPA cage at the N-terminus of the A-chain loaded with Mn2+ (paramagnetic label)", "values": [{"measurement": "binding to RXFP1", "setting": "RXFP1 [1]", "value": "no difference"}, {"measurement": "line-broadening by Mn2+-DTPA-(A)-H2 (binding)", "setting": "F50A^Ins-RXFP1(1–72)", "value": "reduced peak broadening"}, {"measurement": "line-broadening by Mn2+-DTPA-(A)-H2 (binding)", "setting": "F50A RXFP1(1–72)", "value": "substantially reduced"}, {"measurement": "line-broadening by Mn2+-DTPA-(A)-H2 (binding)", "setting": "G41A/D42A-RXFP1(1–72)", "value": "attenuated"}, {"measurement": "line-broadening by Mn2+-DTPA-(A)-H2 (binding)", "setting": "F54A-RXFP1(1–72)", "value": "less than that observed for wild-type RXFP1(1–72)"}, {"measurement": "line-broadening by Mn2+-DTPA-(A)-H2 (binding)", "setting": "G45A/W46A-RXFP1(1–72)", "value": "substantially less than that observed for wild-type RXFP1(1–72)"}, {"measurement": "line-broadening by Mn2+-DTPA-(A)-H2 (binding)", "setting": "F54A/Y58A RXFP1(1–72)", "value": "substantially reduced"}, {"measurement": "activating RXFP1", "setting": "RXFP1 [2]", "value": "no difference"}]}
